Changes are numbered by the printed parent chain. One block for each binder: values may come before it.
Biological target: T1, tau peptide V1089–24
T1 sequence (peptide, phosphoserine at Ser422; biotin (position not stated)): SSTGSIDMVDSPQLATLA
Assay: BLI; biotinylated peptide V1089–24 (1 μg/ml) on streptavidin biosensors; 13 Fab concentrations in ForteBio's kinetics buffer; 600 s association, 600 s dissociation; steady state analysis

- Kd: 240 nM
B1: Fab-dmCBTAU-22.1 (Fab, V domains shown)
VH: QVQLVQSGAEVKKPGAPVKVSCETSGYRFSDYFVHWVRQAPGQGPEWIGRIRPNSGGTKYAQKFQGRVTMTRDMSMNTAYMELSGLRSDDTAVYYCVRGHCDGTTCSRAYWGQGTLVTVSS
VL: DVVMTQSPLSLPVTPGEPASISCRSSQSLLHRSGHKYLHWYLQRPGQSPQVLIYLGSNRASGVPDRFSGSGSGTDFTLKISRVEAEDVGLYYCMQTLQTPWTFGQGTKVEIK

- Kd: 5600 nM
B2: Fab-CBTAU-22.1 (Fab, V domains shown)
VH: B1 VH with F33N, R52S
VL: B1 VL
